Drawing on patent US20100111959A1, this text covers Kd, Percent Inhibition IL-13 R130Q (333 ng/ml) to Ra2 and Percent IL-13 R130Q (30 ng/ml) Binding for 14 molecules.

Residue numbers refer to the chain shown, from its start. In names and notes the source's numbering stands. Several values for one entry are separate records, joined by “and”; a condition that tells them apart may be missing. Identical values can stand only once.

B1: mAb Lc-2B03 + Hc2 M34S, M100L (antibody, human IgG1, V domains shown)
VH: QVTLKESGPVLVKPTETLTLTCTVSGFSLSTYGSGVGWIRQPPGKALEWLAHIWWDDVKRYNPALKSRLTISKDTSKSQVVLTMTNMDPVDTATYYCARLGSDYDVWFDYWGQGTLVTVSS
VL: EIVLTQSPATLSLSPGERATLSCRASKSISKYLAWYQQKPGQAPRLLIYSGSTLQSGIPARFSGSGSGTDFTLTISSLEPEDFAVYYCQQHDYPYTFGQGTKLEIKR
B2: mAb Lc-2B03 + Hc2 T31S, M34S, M100L (antibody, human IgG1, V domains shown)
VH: B1 VH with T31S
VL: B1 VL
B3: mAb Lc-2B03 + Hc2 T31S, M34V, M100L (antibody, human IgG1, V domains shown)
VH: B1 VH with T31S, S34V
VL: B1 VL
B4: mAb Lc-2B03 + Hc2 T31S, M34S, M100L, V106I (antibody, human IgG1, V domains shown)
VH: B1 VH with T31S, V106I
VL: B1 VL
B5: mAb Lc-2B03 + Hc2 M34Q, M100L (antibody, human IgG1, V domains shown)
VH: B1 VH with S34Q
VL: B1 VL
B6: mAb Lc-2B03 + Hc2 M34V, M100L (antibody, human IgG1, V domains shown)
VH: B1 VH with S34V
VL: B1 VL
B7: Lc3Hc6 (antibody, human IgG1, V domains shown)
VH: QVQLVESGGGVVQPGRSLRLSCAASGFSLSTYGMGVGWVRQAPGKGLEWVAHIWWDDVKRYNPALKSRFTISRDNSKNTLYLQMNSLRAEDTAVYYCARMGSDYDVWFDYWGQGTLVTVSS
VL: AIQLTQSPSSLSASVGDRVTITCRASKSISKYLAWYQQKPGKAPKLLIYSGSTLQSGVPSRFSGSGSGTDFTLTISSLQPEDFATYYCQQHNEYPYTFGGGTKVEIK
B8: Lc7Hc6 (antibody, human IgG1, V domains shown)
VL: B7 VL with A1D, Q37R, A43V, F83V, C88G, G100Q, V104L
VH: B7 VH
B9: Lc15Hc1 (antibody, human IgG1, V domains shown)
VH: B1 VH with V10A, E16Q, V24F, S34M, S78N, L100M
VL: B7 VL with A1V, Q3W, L4M, S10L, V15T, T22S, K45E, S77C, P80S
B10: Lc7Hc1 (antibody, human IgG1, V domains shown)
VL: B7 VL with A1D, Q37R, A43V, F83V, C88G, G100Q, V104L
VH: B1 VH with V10A, E16Q, V24F, S34M, S78N, L100M
B11: mAb Lc-2B03 + Hc2 M34E, M100L (antibody, human IgG1, V domains shown)
VH: B1 VH with S34E
VL: B1 VL
B12: mAb Lc-2B03 + Hc2 M34V, M100L, V106I (antibody, human IgG1, V domains shown)
VH: B1 VH with S34V, V106I
VL: B1 VL
B13: mAb Lc-2B03 + Hc2 M34S, M100L, V106I (antibody, human IgG1, V domains shown)
VH: B1 VH with V106I
VL: B1 VL
B14: mAb Lc-2B03 + Hc2 M34E, M100L, V106I (antibody, human IgG1, V domains shown)
VH: B1 VH with S34E, V106I
VL: B1 VL

In one test the target is human IL-13 R130Q variant (R110Q of the mature chain) (human) (UniProt P35225). The test is described as follows: Biacore SPR, mAb from CHO. In general terms: SPR reads the build-up and loss of mass on a sensor chip optically.
As for B1, the Kd (usually a measure of binding affinity in units of concentration) came to 0.0184 nM.

The molecule B2 gave a Kd of 0.0101 nM. Compared with the last molecule, the Kd is about 1.8-fold lower.

The molecule B3 returned a Kd of 0.0058 nM.

Regarding B4, the Kd stood at 0.0211 nM.

Molecule B5 came in with a Kd of 0.0251 nM.

The molecule B6 yielded a Kd of 0.019 nM.

For another test the target is unchanged. The test is described as follows: IL-13Ra2 binding inhibition ELISA, crude supernatant. On the technique in general: ELISA stands for enzyme-linked immunosorbent assay.
For the molecule B7, the Percent Inhibition IL-13 R130Q (333 ng/ml) to Ra2 was determined as 14%.

Molecule B8 yielded a Percent Inhibition IL-13 R130Q (333 ng/ml) to Ra2 of 4%.

For B9, the Percent Inhibition IL-13 R130Q (333 ng/ml) to Ra2 stood at 44%.

As to B10, the Percent Inhibition IL-13 R130Q (333 ng/ml) to Ra2 was determined as 6%.

For a further test the target is unchanged. The test is described as follows: Biacore SPR, mAb from HEK293.
In turn, B1 came in with a Kd of 0.0014 nM.

Consider B2, for which the Kd stood at 0.0123 nM. This Kd is about 8.8-fold higher than that of the molecule before.

Consider B11, for which the Kd worked out at 0.0076 nM.

As for B12, the Kd came to 0.0252 nM. This Kd is about 3.3-fold higher than that of the molecule before.

B13: the Kd is 0.0205 nM and 0.0209 nM.

As to B3, the Kd was 0.0037 nM.

B4: the Kd came to 0.0152 nM.

B5 displayed a Kd of 0.0243 nM.

Regarding B14, the Kd was 0.0114 nM.

Regarding B6, the Kd is 0.0164 nM.

The target is the same in another test. Nature of the test: direct binding ELISA, crude supernatant, relative to Lc16Hc7.
For the molecule B7, the Percent IL-13 R130Q (30 ng/ml) Binding came to 26.6%.

As for B8, the Percent IL-13 R130Q (30 ng/ml) Binding is -0.3%.

For B9, the Percent IL-13 R130Q (30 ng/ml) Binding came to 76.2%.

Consider B10, for which the Percent IL-13 R130Q (30 ng/ml) Binding is -1.4%.
